According to US20260035433A1:

The binders below were run against His-Tagged rhFc(gamma) receptor I (recombinant human Fc(gamma)R-I; Acro Biosystems, catalog# FCA-H52H1) (human) (assay: ELISA, fusion protein coated at 10 ug/mL, His-tagged rhFc(gamma)RI in solution, anti-His-HRP).
Chain of His-Tagged rhFc(gamma) receptor I (recombinant human Fc(gamma)R-I; Acro Biosystems, catalog# FCA-H52H1) (human) (P12314 16-292): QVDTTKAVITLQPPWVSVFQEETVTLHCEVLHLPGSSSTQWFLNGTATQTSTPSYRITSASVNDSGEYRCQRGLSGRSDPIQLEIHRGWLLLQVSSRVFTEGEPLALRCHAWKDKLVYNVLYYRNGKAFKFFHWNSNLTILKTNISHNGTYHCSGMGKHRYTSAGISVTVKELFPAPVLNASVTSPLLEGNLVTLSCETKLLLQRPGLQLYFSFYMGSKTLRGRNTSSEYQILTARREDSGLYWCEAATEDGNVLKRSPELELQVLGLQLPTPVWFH

Row | Binder | OD450 at 222 ng/ml Fc(gamma) RI
1 | PD-L1 analog-Fc fusion protein of SEQ ID NO: 20 (Fc fusion) FTITVSKDLYVVEYGGNVTMECKFPVEKQLNLFALIVYWEMEDKKIIQFVNGKEDLKVQHSSYSQRAQLLKDQLFLGKAALQITDVRLQDAGVYRCLIGYGGADYKRITLKVHAPYRNISQRISVDPVTSGGGGQGGGSGGQGGGGGDCPKCPAPEMLGGPSVFIFPPKPKDTLLIARTPEVTCVVVDLDPEDPEVQISWFVDGKQMQTAKTQPREEQFNGTYRVVSVLPIGHQDWLKGKQFTCKVNNKALPSPIERTISKARGQAHQPSVYVLPPSREELSKNTVSLTCLIKDFFPPDIDVEWQSNGQQEPESKYRTTPPQLDEDGSYFLYSKLSVDKSRWQRGDTFICAVMHEALHNHYTQESLSHSPG | 1.97 OD450
2 | PD-L1 analog-Fc fusion protein of SEQ ID NO: 21 (Fc fusion) LIGYGGADYKRITLKVHAPYRNISQRISVDPVTSGGGGQGGGSGGQGGGGGDCPKCPAPEMLGGPSVFIFPPKPKDTLLIARTPEVTCVVVDLDPEDPEVQISWFVDGKQMQTAKTQPREEQFNGTYRVVSVLPIGHQDWLKGKQFTCKVNNKALPSPIERTISKARGQAHQPSVYVLPPSREELSKNTVSLTCLIKDFFPPDIDVEWQSNGQQEPESKYRTTPPQLDEDGSYFLYSKLSVDKSRWQRGDTFICAVMHEALHNHYTQESLSHSPG | 2.05 OD450
3 | PD-L1 analog-Fc fusion protein of SEQ ID NO: 24 (Fc fusion) LIGYGGADYKRITLKVHAPYRNISQRISVDPVTSEHELMCQAEGYPEAEVIWTSSDHRVLSGKTTITNSNREEKLFNVTSTLNINATANEIFYCTFQRSGPEENNTAELVIPERLPVPASERTHFMILGPFGGGGQGGGSGGQGGGGGDCPKCPAPEMLGGPSVFIFPPKPKDTLLIARTPEVTCVVVDLDPEDPEVQISWFVDGKQMQTAKTQPREEQFNGTYRVVSVLPIGHQDWLKGKQFTCKVNNKALPSPIERTISKARGQAHQPSVYVLPPSREELSKNTVSLTCLIKDFFPPDIDVEWQSNGQQEPESKYRTTPPQLDEDGSYFLYSKLSVDKSRWQRGDTFICAVMHEALHNHYTQESLSHSPG | 1.49 OD450
4 | PD-L1 analog-Fc fusion protein of SEQ ID NO: 22 (Fc fusion) FTITVSKDLYVVEYGGNVTMECKFPVEKQLNLFALIVYWEMEDKKIIQFVNGKEDLKVQHSSYSQRAQLLKDQLFLGKAALQITDVRLQDAGVYRCLIGYGGADYKRITLKVHAPYRNISQRISVDPVTSQGGGSGGQDCPKCPAPEMLGGPSVFIFPPKPKDTLLIARTPEVTCVVVDLDPEDPEVQISWFVDGKQMQTAKTQPREEQFNGTYRVVSVLPIGHQDWLKGKQFTCKVNNKALPSPIERTISKARGQAHQPSVYVLPPSREELSKNTVSLTCLIKDFFPPDIDVEWQSNGQQEPESKYRTTPPQLDEDGSYFLYSKLSVDKSRWQRGDTFICAVMHEALHNHYTQESLSHSPG | 1.91 OD450

Other lines, results leading:

Row | OD450 at 222 ng/ml Fc(gamma) RI | Binder
5 | 1.79 OD450 | PD-L1 analog-Fc fusion protein of SEQ ID NO: 26 (Fc fusion) FTITVSKDLYVVEYGGNVTMECKFPVEKQLNLFALIVYWEMEDKKIIQFVNGKEDLKVQHSSYSQRAQLLKDQLFLGKAALQITDVRLQDAGVYRCLIGYGGADYKRITLKVHAPYRNISQRISVDPVTSEHELMCQAEGYPEAEVIWTSSDHRVLSGKTTITNSNREEKLFNVTSTLNINATANEIFYCTFQRSGPEENNTAELVIPERLPVPASERTHFMILGPFQGGGSGGQDCPKCPAPEMLGGPSVFIFPPKPKDTLLIARTPEVTCVVVDLDPEDPEVQISWFVDGKQMQTAKTQPREEQFNGTYRVVSVLPIGHQDWLKGKQFTCKVNNKALPSPIERTISKARGQAHQPSVYVLPPSREELSKNTVSLTCLIKDFFPPDIDVEWQSNGQQEPESKYRTTPPQLDEDGSYFLYSKLSVDKSRWQRGDTFICAVMHEALHNHYTQESLSHSPG
6 | 1.78 OD450 | PD-L1 analog-Fc fusion protein of SEQ ID NO: 27 (Fc fusion) FTITVSKDLYVVEYGGNVTMECKFPVEKQLNLFALIVYWEMEDKKIIQFVNGKEDLKVQHSSYSQRAQLLKDQLFLGKAALQITDVRLQDAGVYRCLIGYGGADYKRITLKVHAPYRNISQRISVDPVTSEHELMCQAEGYPEAEVIWTSSDHRVLSGKTTITNSNREEKLFNVTSTLNINATANEIFYCTFQRSGPEENNTAELVIPERLPVPASERTHFMILGPFGGGGQGGGSGGQGGGGGDCPKCPAPEMLGGPSVFIFPPKPKDTLLIARTPEVTCVVVDLDPEDPEVQISWFVDGKQMQTAKTQPREEQFNGTYRVVSVLPIGHQDWLKGKQFTCKVNNKALPSPIERTISKARGQAHQPSVYVLPPSREELSKNTVSLTCLIKDFFPPDIDVEWQSNGQQEPESKYRTTPPQLDEDGSYFLYSKLSVDKSRWQRGDTFICAVMHEALHNHYTQESLSHSPG
7 | 1.7 OD450 | PD-L1 analog-Fc fusion protein of SEQ ID NO: 32 (Fc fusion) FTITVSKDLYVVEYGGNVTMECKFPVEKQLNLFALIVYWEMEDKKIIQFVNGKEDLKVQHSSYSQRAQLLKDQLFLGKAALQITDVRLQDAGVYCCLIGYGGADYKRITLKVHAPYRNISQRISVDPVTSEHELMCQAEGYPEAEVIWTSSDHRVLSGKTTITNSNREEKLFNVTSTLNINATANEIFYCTFQRSGPEENNTAELVIPERLPVPASERTHFMILGPFGGGGQGGGSGGQGGGGGDCPKCPAPEMLGGPSVFIFPPKPKDTLLIARTPEVTCVVVDLDPEDPEVQISWFVDGKQMQTAKTQPREEQFNGTYRVVSVLPIGHQDWLKGKQFTCKVNNKALPSPIERTISKARGQAHQPSVYVLPPSREELSKNTVSLTCLIKDFFPPDIDVEWQSNGQQEPESKYRTTPPQLDEDGSYFLYSKLSVDKSRWQRGDTFICAVMHEALHNHYTQESLSHSPG
